One block for each binder: values may come before it.
B1: Rpd3 (enzyme, S. cerevisiae, UniProt P32561 1-433, looked up)
chain: MVYEATPFDPITVKPSDKRRVAYFYDADVGNYAYGAGHPMKPHRIRMAHSLIMNYGLYKKMEIYRAKPATKQEMCQFHTDEYIDFLSRVTPDNLEMFKRESVKFNVGDDCPVFDGLYEYCSISGGGSMEGAARLNRGKCDVAVNYAGGLHHAKKSEASGFCYLNDIVLGIIELLRYHPRVLYIDIDVHHGDGVEEAFYTTDRVMTCSFHKYGEFFPGTGELRDIGVGAGKNYAVNVPLRDGIDDATYRSVFEPVIKKIMEWYQPSAVVLQCGGDSLSGDRLGCFNLSMEGHANCVNYVKSFGIPMMVVGGGGYTMRNVARTWCFETGLLNNVVLDKDLPYNEYYEYYGPDYKLSVRPSNMFNVNTPEYLDKVMTNIFANLENTKYAPSVQLNHTPRDAEDLGDVEEDSAEAKDTKGGSQYARDLHVEHDNEFY
notes: Rpd3, histone deacetylase, the catalytic subunit of the S. cerevisiae Rpd3L complex; endogenous subunit; Present in two copies in the Rpd3L complex, one in each lobe; also called Rpd3-I; Rpd3-II
B6: Dep1 (natural protein, S. cerevisiae, UniProt P31385 1-405, looked up)
chain: MSQQTPQESEQTTAKEQDLDQESVLSNIDFNTDLNHNLNLSEYCISSDAGTEKMDSDEEKSLANLPELKYAPKLSSLVKQETLTESLKRPHEDEKEAIDEAKKMKVPGENEDESKEEEKSQELEEAIDSKEKSTDARDEQGDEGDNEEENNEEDNENENEHTAPPALVMPSPIEMEEQRMTALKEITDIEYKFAQLRQKLYDNQLVRLQTELQMCLEGSHPELQVYYSKIAAIRDYKLHRAYQRQKYELSCINTETIATRTFIHQDFHKKVTDLRARLLNRTTQTWYDINKERRDMDIVIPDVNYHVPIKLDNKTLSCITGYASAAQLCYPGEPVAEDLACESIEYRYRANPVDKLEVIVDRMRLNNEISDLEGLRKYFHSFPGAPELNPLRDSEINDDFHQWAQ
notes: Dep1, subunit of the S. cerevisiae Rpd3L complex; endogenous subunit
B7: Sds3 (natural protein, S. cerevisiae, UniProt P40505 1-327, looked up)
chain: MAIQKVSNKDLSRKDKRRFNIESKVNKIYQNFYSERDNQYKDRLTALQTDLTSLHQGDNGQYARQVRDLEEERDLELVRLRLFEEYRVSRSGIEFQEDIEKAKAEHEKLIKLCKERLYSSIEQKIKKLQEERLLMDVANVHSYAMNYSRPQYQKNTRSHTVSGWDSSSNEYGRDTANESATDTGAGNDRRTLRRRNASKDTRGNNNNQDESDFQTGNGSGSNGHGSRQGSQFPHFNNLTYKSGMNSDSDFLQGINEGTDLYAFLFGEKNPKDNANGNEKKKNRGAQRYSTKTAPPLQSLKPDEVTEDISLIRELTGQPPAPFRLRSD
notes: Sds3, subunit of the S. cerevisiae Rpd3L complex; endogenous subunit

Columns and labels:
[1] = target: T1, Sin3 (S. cerevisiae, UniProt P22579 1-1536); experiment: cryo-EM structure; Rpd3L complex purified by TAP, crosslinked on ice with 1 mM BS3 for 15 min, graphene oxide coated grid; map at 3.5 Å, lobes I and II focus refined to 3.4 Å; conditions: both partners purified
T1 construct: Sin3, principal scaffolding subunit of the S. cerevisiae Rpd3L complex; endogenous subunit; Present in two copies in the Rpd3L complex, one in each lobe; also called Sin3-I; Sin3-II

[2] = target: B1; experiment: affinity purification with mass spectrometry; tandem affinity purification from S. cerevisiae lysate by the TAP tag on Rxt2 (IgG resin, TEV protease, calmodulin resin; washes with 500 to 750 mM KCl); the purified complex analysed by mass spectrometry; conditions: partners not purified
[3] = target: T1, Sin3; experiment: as above; conditions: partners not purified
[4] = target: T2, co-expressed complex of MBP-tagged human BRMS1 (residues 51-179) and His6-tagged mouse SDS3 (residues 43-234) (human | mouse, UniProt Q9HCU9 51-179; Q8BR65 43-234); experiment: SEC; Ni-NTA purified proteins on a Superdex 75 GL column in 25 mM MOPS pH 7.5, 150 mM NaCl, 1 mM TCEP; co-elution; conditions: both partners purified
T2 construct: BRMS1, human, residues 51-179; SDS3, mouse, residues 43-234; The two chains were co-expressed and then combined with the separately expressed ARID4A R2 domain; also called SDS3, BRMS1; source: E. coli, co-expressed, purified (Ni-NTA, SEC)
T2 sequence (looked up) 1: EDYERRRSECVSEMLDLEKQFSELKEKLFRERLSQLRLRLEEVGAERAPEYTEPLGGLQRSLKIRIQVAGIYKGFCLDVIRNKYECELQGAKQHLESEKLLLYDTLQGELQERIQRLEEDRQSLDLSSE
T2 sequence (looked up) 2: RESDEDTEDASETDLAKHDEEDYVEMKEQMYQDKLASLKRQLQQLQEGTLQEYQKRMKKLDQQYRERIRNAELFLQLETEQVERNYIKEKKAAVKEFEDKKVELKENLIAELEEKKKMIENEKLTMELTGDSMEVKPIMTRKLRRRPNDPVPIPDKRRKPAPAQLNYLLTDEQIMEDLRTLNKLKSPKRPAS

[5] = target: B7; experiment: cryo-EM structure; Rpd3L complex purified by TAP, crosslinked on ice with 1 mM BS3 for 15 min, graphene oxide coated grid; map at 3.5 Å, lobes I and II focus refined to 3.4 Å; conditions: both partners purified
[6] = target: B1; experiment: as above; conditions: both partners purified
[7] = target: B6; experiment: as above; conditions: both partners purified

T1 sequence (P22579 whole entry): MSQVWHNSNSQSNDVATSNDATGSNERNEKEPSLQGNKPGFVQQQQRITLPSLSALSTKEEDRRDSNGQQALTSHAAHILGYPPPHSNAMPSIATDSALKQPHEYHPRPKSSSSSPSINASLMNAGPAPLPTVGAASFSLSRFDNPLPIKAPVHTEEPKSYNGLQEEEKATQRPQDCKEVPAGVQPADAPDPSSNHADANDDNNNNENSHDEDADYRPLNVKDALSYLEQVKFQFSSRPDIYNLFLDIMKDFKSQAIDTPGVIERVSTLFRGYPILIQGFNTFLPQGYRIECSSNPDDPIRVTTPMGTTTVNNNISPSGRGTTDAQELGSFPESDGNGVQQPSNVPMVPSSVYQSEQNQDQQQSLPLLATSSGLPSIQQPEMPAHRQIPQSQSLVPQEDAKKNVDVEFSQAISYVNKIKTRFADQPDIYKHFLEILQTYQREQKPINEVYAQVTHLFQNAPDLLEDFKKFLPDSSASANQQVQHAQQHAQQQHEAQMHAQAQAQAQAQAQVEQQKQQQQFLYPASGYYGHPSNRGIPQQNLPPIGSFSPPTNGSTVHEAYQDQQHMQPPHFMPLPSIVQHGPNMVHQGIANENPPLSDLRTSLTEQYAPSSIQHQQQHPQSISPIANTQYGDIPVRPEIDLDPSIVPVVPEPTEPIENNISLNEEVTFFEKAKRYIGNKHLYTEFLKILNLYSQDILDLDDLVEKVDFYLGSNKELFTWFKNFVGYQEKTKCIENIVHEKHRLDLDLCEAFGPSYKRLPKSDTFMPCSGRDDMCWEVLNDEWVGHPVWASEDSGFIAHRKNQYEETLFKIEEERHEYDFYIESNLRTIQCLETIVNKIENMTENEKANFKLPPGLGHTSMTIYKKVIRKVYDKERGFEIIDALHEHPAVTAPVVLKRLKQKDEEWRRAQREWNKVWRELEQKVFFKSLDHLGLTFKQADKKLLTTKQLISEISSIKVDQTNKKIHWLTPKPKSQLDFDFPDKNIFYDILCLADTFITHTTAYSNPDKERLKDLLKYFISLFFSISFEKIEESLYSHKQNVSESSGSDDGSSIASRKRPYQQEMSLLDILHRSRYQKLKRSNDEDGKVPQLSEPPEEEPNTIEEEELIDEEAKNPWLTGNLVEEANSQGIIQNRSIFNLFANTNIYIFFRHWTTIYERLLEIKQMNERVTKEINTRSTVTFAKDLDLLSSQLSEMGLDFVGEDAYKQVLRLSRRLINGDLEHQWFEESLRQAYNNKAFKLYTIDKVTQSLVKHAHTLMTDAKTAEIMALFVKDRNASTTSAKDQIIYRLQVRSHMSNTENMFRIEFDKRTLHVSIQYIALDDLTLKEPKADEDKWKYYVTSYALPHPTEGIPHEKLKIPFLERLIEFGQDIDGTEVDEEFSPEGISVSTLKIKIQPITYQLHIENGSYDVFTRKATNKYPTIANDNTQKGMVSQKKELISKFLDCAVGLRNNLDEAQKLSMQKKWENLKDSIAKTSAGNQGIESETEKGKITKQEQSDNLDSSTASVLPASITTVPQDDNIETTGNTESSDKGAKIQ

Binder: B1
binding result [1]: binds

binding result [2]: binds
binding result [3]: binds
B2: Rxt2 with a TAP tag at the C-terminus (natural protein, S. cerevisiae)
chain: MTIRSSMKNNAELESKSVLANESNIISTFTRRIIKEKSGNYQVLKRSLDGKLIYPEATGISSNRGNKLLQRSEVVTRRDLNNSKPMIEQTVFYNGSEHRLLQTNIVTDSRRKRIKFTPDINVEPVLVGDENDIDGSEKEDENITDEYYGEEDDDDLSKLVNVKEILTPILSLGDIINHKTISRTFSSPILKNLALQIILMIEKEQMSVVRYSQFLEVFLGDHPEPIYESNLNLPSYNHNLTLPEDRGASDEDDINNKNNINEVNSNSLSTEAGHINNGMEEFGEEDPFFALPRLEQSNALLSLLPSSSGSASISTLTAAEQQQLNEEIESARQLSQIALQRNKEFIRNLQKIRKSVIKANRIRGRILNWSREYLGISDDDITIPVALRVVKRGLISATTNKTTNFEEEIENTMEDGVVDDNEPDEEANRA
notes: Rxt2, subunit of the S. cerevisiae Rpd3L complex; expressed from the tagged strain; not shown: TAP tag, C-terminal, kept

binding result [4]: binds
B3: His6-tagged human ARID4A R2 domain (residues 1164-1230) (domain or fragment, UniProt P29374 1164-1230, looked up)
chain: SPRTYKWSFQLNELDNMNSTERISFLQEKLQEIRKYYMSLKSEVATIDRRRKRLKKKDREVSHAGAS
notes: ARID4A, human, R2 domain, residues 1164-1230; Construct in the pMCSG7 vector; source: E. coli, expressed separately, purified (Ni-NTA, SEC)

binding result [1]: binds
binding result [5]: binds
B4: Sap30 (natural protein, S. cerevisiae, UniProt P38429 1-201, looked up)
chain: MARPVNTNAETESRGRPTQGGGYASNNNGSCNNNNGSNNNNNNNNNNNNNSNNSNNNNGPTSSGRTNGKQRLTAAQQQYIKNLIETHITDNHPDLRPKSHPMDFEEYTDAFLRRYKDHFQLDVPDNLTLQGYLLGSKLGAKTYSYKRNTQGQHDKRIHKRDLANVVRRHFDEHSIKETDCIPQFIYKVKNQKKKFKMEFRG
notes: Sap30, subunit of the S. cerevisiae Rpd3L complex; endogenous subunit

binding result [1]: binds
B5: Rxt3 (natural protein, S. cerevisiae, UniProt Q07458 1-294, looked up)
chain: MSVSEQDPNRAYRETQSQIYKLQETLLNSARTKNKQEEGQESNTHSFPEQYMHYQNGRNSAYDLPNVSSQSVLAFTEKHYPNKLKNLGTLYYNRFKEGSFDEDSTSYSDRHSFPYNLYDNTLPPPFLPAIGIQNINNIATLKITYEDIQASFNNIESPRKRNNEIWGCDIYSDDSDPILVLRHCGFKIGAPSGGSFHKLRRTPVNVTNQDNVTGNLPLLEGTPFDLEVELLFLPTLQKYPSVKRFDITSREWGSEATVIHDGLSYGIYSIVIKQRLDRDKPHEPNGYIKNLKWT
notes: Rxt3, subunit of the S. cerevisiae Rpd3L complex; endogenous subunit

Binder: B6
binding result [6]: binds
binding result [1]: binds

Binder: B7
binding result [1]: binds

binding result [6]: binds
binding result [7]: binds
B8: Pho23 (natural protein, S. cerevisiae, UniProt P50947 1-330, looked up)
chain: MSSPANLFPGLNDITDVLEEFPLATSRYLTLLHEIDAKCVHSMPNLNERIDKFLKKDFNKDHQTQVRLLNNINKIYEELMPSLEEKMHVSSIMLDNLDRLTSRLELAYEVAIKNTEIPRGLRLGVDNHPAMHLHHELMEKIESKSNSKSSQALKSESRREAMAANRRQGEHYSASTHQQDDSKNDANYGGSRHESQDHTGNNTNSRKRANAANTNNADPETKKRKRRVATTAVSPSTISTATAVNNGRIGTSTASRGVSSVGNSNNSRISRPKTNDYGEPLYCYCNQVAYGEMVGCDGADCELEWFHLPCIGLETLPKGKWYCDDCKKKL
notes: Pho23, subunit of the S. cerevisiae Rpd3L complex; endogenous subunit
